Assay results taken from patent US20190314526A1.

Key:
[1] = biological target: AAV-2 capsid mutant G246A (rAAV-2 virion) (AAV-2) (UniProt P03135); test: all-human IgG ELISA, against wild type
[2] = biological target: AAV-2 capsid mutant E411A/T413A (rAAV-2 virion) (AAV-2) (UniProt P03135); test: all-human IgG ELISA, against wild type
[3] = biological target: AAV-2 capsid mutant S130T (rAAV-2 virion) (AAV-2) (UniProt P03135); test: all-human IgG ELISA, against wild type
[4] = biological target: AAV-2 capsid mutant N568A (rAAV-2 virion) (AAV-2) (UniProt P03135); test: all-human IgG ELISA, against wild type
[5] = biological target: AAV-2 capsid mutant G449A (rAAV-2 virion) (AAV-2) (UniProt P03135); test: all-human IgG ELISA, against wild type
[6] = biological target: AAV-2 capsid mutant R334A/G449A (rAAV-2 virion) (AAV-2) (UniProt P03135); test: all-human IgG ELISA, against wild type
[7] = biological target: AAV-2 capsid mutant G449A/N568A (rAAV-2 virion) (AAV-2) (UniProt P03135); test: all-human IgG ELISA, against wild type
[8] = biological target: AAV-2 capsid mutant H372K (rAAV-2 virion) (AAV-2) (UniProt P03135); test: all-human IgG ELISA, against wild type
[9] = biological target: AAV-2 capsid mutant R334A (rAAV-2 virion) (AAV-2) (UniProt P03135); test: all-human IgG ELISA, against wild type
[10] = biological target: AAV-2 capsid mutant E393D (rAAV-2 virion) (AAV-2) (UniProt P03135); test: all-human IgG ELISA, against wild type
[11] = biological target: AAV-2 capsid mutant T413K (rAAV-2 virion) (AAV-2) (UniProt P03135); test: all-human IgG ELISA, against wild type
[12] = biological target: AAV-2 capsid mutant N360H (rAAV-2 virion) (AAV-2) (UniProt P03135); test: all-human IgG ELISA, against wild type
[13] = biological target: AAV-2 capsid mutant R334A/N568A (rAAV-2 virion) (AAV-2) (UniProt P03135); test: all-human IgG ELISA, against wild type
[14] = biological target: AAV-2 capsid mutant D132N (rAAV-2 virion) (AAV-2) (UniProt P03135); test: all-human IgG ELISA, against wild type
[15] = biological target: AAV-2 capsid mutant R334A/G449A/N568A (rAAV-2 virion) (AAV-2) (UniProt P03135); test: all-human IgG ELISA, against wild type
[16] = biological target: AAV-2 capsid mutant H134Q (rAAV-2 virion) (AAV-2) (UniProt P03135); test: all-human IgG ELISA, against wild type
[17] = biological target: AAV-2 capsid mutant N568K (rAAV-2 virion) (AAV-2) (UniProt P03135); test: all-human IgG ELISA, against wild type
[18] = biological target: AAV-2 capsid mutant S130A (rAAV-2 virion) (AAV-2) (UniProt P03135); test: all-human IgG ELISA, against wild type
[19] = biological target: AAV-2 capsid mutant D357E (rAAV-2 virion) (AAV-2) (UniProt P03135); test: all-human IgG ELISA, against wild type
[20] = biological target: AAV-2 capsid mutant H372Q (rAAV-2 virion) (AAV-2) (UniProt P03135); test: all-human IgG ELISA, against wild type
[21] = biological target: AAV-2 capsid mutant N568A/V571A (rAAV-2 virion) (AAV-2) (UniProt P03135); test: all-human IgG ELISA, against wild type
[22] = biological target: AAV-2 capsid mutant V571K (rAAV-2 virion) (AAV-2) (UniProt P03135); test: all-human IgG ELISA, against wild type
[23] = biological target: AAV-2 capsid mutant E411A/T413A/G449A/N450A (rAAV-2 virion) (AAV-2) (UniProt P03135); test: all-human IgG ELISA, against wild type
[24] = biological target: AAV-2 capsid mutant V571K (rAAV-2 virion) (AAV-2) (UniProt P03135); test: A20/IgG sandwich ELISA: capture on coated Panglobulin, detection with A20-biotin; against wild type
[25] = biological target: AAV-2 with a wild-type capsid (rAAV-2 virion) (AAV-2) (UniProt P03135); test: all-human IgG ELISA, virus needed for half maximal OD, against wild type
[26] = biological target: AAV-2 capsid mutant D357N (rAAV-2 virion) (AAV-2) (UniProt P03135); test: cell-based or functional assay
[27] = biological target: AAV-2 capsid mutant G449A/N568A (rAAV-2 virion) (AAV-2) (UniProt P03135); test: cell-based or functional assay

## purified human IgG from >10,000 donors (Panglobulin, ZLB Bioplasma AG)
[1]
  Fold decrease in binding of human IgG: 1 fold
[2]
  Fold decrease in binding of human IgG: 1 fold
[3]
  Fold decrease in binding of human IgG: 1 fold
[4]
  Fold decrease in binding of human IgG: 1 fold
[5]
  Fold decrease in binding of human IgG: 1 fold
[6]
  Fold decrease in binding of human IgG: 1 fold
[7]
  Fold decrease in binding of human IgG: 1 fold
[8]
  Fold decrease in binding of human IgG: 1 fold
[9]
  Fold decrease in binding of human IgG: 1 fold
[10]
  Fold decrease in binding of human IgG: 1 fold
[11]
  Fold decrease in binding of human IgG: 1 fold
[12]
  Fold decrease in binding of human IgG: 1 fold
[13]
  Fold decrease in binding of human IgG: 1 fold
[14]
  Fold decrease in binding of human IgG: 1 fold
[15]
  Fold decrease in binding of human IgG: 1 fold
[16]
  Fold decrease in binding of human IgG: 1 fold
[17]
  Fold decrease in binding of human IgG: 1 fold
[18]
  Fold decrease in binding of human IgG: 1 fold
[19]
  Fold decrease in binding of human IgG: 1 fold
[20]
  Fold decrease in binding of human IgG: 1 fold
[21]
  Fold decrease in binding of human IgG: 1 fold
[22]
  Fold decrease in binding of human IgG: 10 fold
[23]
  Fold decrease in binding of human IgG: 1 fold
[24]
  fold reduction of binding: 100 fold
[25]
  Fold decrease in binding of human IgG: 1 fold
[26]
  Fold decrease in neutralizing titer: 1.8 fold
[27]
  Fold decrease in neutralizing titer: 1.7 fold
